Assay results reported in the nanobody polyreactivity screen of Harvey et al. (2022).

Assay: yeast display, Sf9 membrane polyspecificity reagent, FACS + sequencing; frameworks hold sequencing errors
How it was run: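 Synthetic nanobody libraries on Saccharomyces cerevisiae BJ5465 were galactose-induced for 36–48 hours, stained 1 hour at 4 °C with 10% biotinylated, detergent-solubilized Sf9 membrane reagent and enriched on streptavidin microbeads. FACS then separated cells into low and high (top ~1%) gates by anti-HA (expression) and streptavidin (reagent binding) fluorescence. Genes were colony-PCR amplified, MiSeq 2 × 250 sequenced and CDR-length filtered. A clone's polyreactivity label is that of its gate of origin.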

Sequence	polyreactivity (PSR sort gate)
QVQLVESGGGLVQAGGSLRLSCAASGSIFYGYAMGWYRQAPGKERELVAAITSSGTRTYYADSVKGRFTISRDNAKNTVYLQMNSLKPEDTAVYYCAADGPGYQYDYWGQGTQVTVSS	high polyreactivity
QVQLVESGGGLVQAGGSLRLSCAASGSIFYGYAMGWYRQAPGKERELVAAITTSGGSTYYADSVKGRFTISRDNAKYTVYLQMNSLKPEDTAVYYCAAVTYWPGGYYWGQGTQVTVSS	high polyreactivity
QVQLVESGGGLVQAGGSLRLSCAASGSIFYGYDMGWYRQAPGKERELVAAITIGGGTTYYADSVKGRFTISRDNAKNTVYLQMNSLKPEDTAVYYCAAEFYYTIYSNKVGYDYWGQGTQVSVSS	high polyreactivity
QVQLVESGGGLVQAGGSLRLSCAASGSIFYGYVMGWYRQAPGKERELVAAISRSGGRTYYADSVKGRFTISRDNAKNTVYLQMNSQKPEDTAVYDCNARQAGTPYKYAYYGRYYWGQGTQVTVSS	high polyreactivity
QVQLVESGGGLVQAGGSLRLSCAASGSIFYHYVMGWYRQAPGKDRELVAGISWSGVSTYYADSVKGLFTISRDNAKNTVYLQMNSLKPEDTAVYYCAAVYRQSRLHTFGYWGQGTQVTVSS	high polyreactivity
QVQLVESGGGLVQAGGSLRLSCAASGSIFYIYAMGWSRQAPGKERELVASITFSGDITYYADSVKGRFTISRDNAKNTVYLQMNSLKPEDTAVYYCNTRTPYWFKSDYWGQGTQVTVSS	low polyreactivity
QVQLVESGGGLVQAGGSLRLSCAASGSIFYIYAMGWYRQAPGKERELVAAINWSGGDTYYADSVKGRFTISRDNAKNTVYLQMNSLKPEDTAVYYCAALLDSEYEYWGQGTQVTVSS	high polyreactivity
QVQLVESGGGLVQAGGSLRLSCAASGSIFYIYAMGWYRQAPGKERELVAAISWSGSSTYYADSVKGRFTISRDNAKHTVYLQMNSLKPEDTAVYYCAADTGYGVRYYYWGQGTQVTVSS	high polyreactivity
QVQLVESGGGLVQAGGSLRLSCAASGSIFYIYAMGWYRQAPGKERELVAAITSSVGRTYYADSVKGRFTISRDNAKNTFYLQMNSLKAEDTAVYYCAADYYYSQVAYVYWGHGTQVTVSS	high polyreactivity
QVQLVESGGGLVQAGGSLRLSCAASGSIFYKYAMGWYRQAPGKERELVAAISGSGGRTYYADSVKGRFTISRDNAKNTVYLQMNSLKPEDTAVYYCAAAKRTWRSDYWGQGTQVTVSS	high polyreactivity
QVQLVESGGGLVQAGGSLRLSCAASGSIFYKYTMGWYRQAPGKERELVAAITRSGGSTYYADSVKGRFTISRDNAKNTVYLQMNSLKPEDTAVYYCAAERASFRYQDYYIYDYWGQGTQVTVSS	high polyreactivity
QVQLVESGGGLVQAGGSLRLSCAASGSIFYLNAMGWYRQAPGKERDLVAAIRWSGGSTRYADSVKGRCTISRDNAKNTVYLQMNSLKPEDTAVYYCAKYNPVLVYHWWYYYWGQGTQVTVSS	high polyreactivity
QVQLVESGGGLVQAGGSLRLSCAASGSIFYLNARGWYRQAPGKERELVASINRGGITYYADSVKGRFTISRDNAKNTVYLQMNSLKPEDTAVYYCAARSPYVSYRSNYYYWGQGTQVTVSS	high polyreactivity
QVQLVESGGGLVQAGGSLRLSCAASGSIFYLYAMGWYRQAPGKERELVAAISESGSTTYYADSVKGRFTISRDNAKNTVYLQMNSLKPEDTAVYYCARLGTYTVVTYDYWGQGTQVTVSS	low polyreactivity
QVQLVESGGGLVQAGGSLRLSCAASGSIFYLYAMGWYRQAPGKERELVAAITSIGGSTYADSVKGRFTISRDNAKNTVYLQMYSLKPEDTAVYYCNTDEYPLTVQVQYYYWGQGTQVTVSS	low polyreactivity
QVQLVESGGGLVQAGGSLRLSCAASGSIFYNAMGWYRQAPGKERELVAAISQRGTRTYYADSVKGRFTISRDNAKKTVYLQMNSLKPEDTAVYYCNRGGWRQYDSWGQGTQVTVSS	high polyreactivity
QVQLVESGGGLVQAGGSLRLSCAASGSIFYNNAMGWYRQAPGKERELVAAITIGGSTNYADSVKGRFTISRDNAKNTVYLQMNSLNPEDTAVYYCAAAVLYWVGYGYWGQGTQVTVSS	low polyreactivity
QVQLVESGGGLVQAGGSLRLSCAASGSIFYNYAMGWYRQAPGKEREFVAGITRSGGTTSYADSVKGRFTISRDNAKNTVYLQMNSLKPEDTAVYYCAAVVYLQAWYGYWDYYYWGQGTQVTVSS	high polyreactivity
QVQLVESGGGLVQAGGSLRLSCAASGSIFYPNAMGWYRQAPGKEREFVAAISKSGGNTYYADSVKGRFTISRDNAKNTVYLQMNSLKPEDTAVYYCAARTQAFSRKGYGYWGQGTQVTVSS	high polyreactivity
QVQLVESGGGLVQAGGSLRLSCAASGSIFYPYAMGWYRQAPGKERELLASITINDGSTYYADSVKGRFTISRDNAKNTVYLQMNSLKPEDTAVYYCNVEPVPGFGSEYEYWGQGTQVTVSS	low polyreactivity
QVQLVESGGGLVQAGGSLRLSCAASGSIFYPYAMGWYRQAPGKERELVAGITYRAGSTYYADSVKGRFTISRDNAKNTVYLQMNSLKPEDTAVYYCAASQSYAFDWGQGTQVTVSS	high polyreactivity
QVQLVESGGGLVQAGGSLRLSCAASGSIFYPYAMGWYRQAPGKERELVATISSGGRTNYADSVKGRFTISRDNAKNTVYLQMNSLKPEDTAVYYCAKDRYPTSWWFRRRDYWGQGTQVTVSS	high polyreactivity

Sequence	polyreactivity (PSR sort gate)
QVQLVESGGGLVQAGGSLRLSCAASGSIFYPYAMGWYRQAPGKERQLVAAISYSGGSTYYADSVKGRFTISRDNAKNTVYLQMNSLKPEDTAVYYCAADVTAGDGRNDYWGIGTQVTVSS	low polyreactivity
QVQLVESGGGLVQAGGSLRLSCAASGSIFYPYTMGWYRQAPGKEREFVAAITGGGGRTYYADSVKGRFTISRDNAKNTVYLQMNSLKPEDTAVYYCATDTYDVNVWELGMDYWGQGTQVTVSS	low polyreactivity
QVQLVESGGGLVQAGGSLRLSCAASGSIFYPYTMGWYRQAPGKETEFVARITWSGGSTYYADSVKGRFTISRDNAKNTVYLQMNSLKPEDSAVYYCARVAWSESDWQKMDYWGQGTQVTVSS	high polyreactivity
QVQLVESGGGLVQAGGSLRLSCAASGSIFYQNALGWYRQAPGKETELVAAMSRSGGSTYYADSVKGRFTISRDNAKNTVYLQMNSLKPEDTAVYYCAARISRQRSYSRDYWGQGTQVTVSS	high polyreactivity
QVQLVESGGGLVQAGGSLRLSCAASGSIFYRNAMGWYRQAPGKERELVAAISASGGSTYYADSVKGRFTISRDNAKNTVYLQMNSLKPEDTAVYYCAASRYYSRYDYWGQGTQVTVSS	high polyreactivity
QVQLVESGGGLVQAGGSLRLSCAASGSIFYRNAMGWYRQAPGKERELVAAISGRGGSTYYADSVKGRFTISRDYAKNTVYLQMYSLKPEDTAVYYCAKDHYRERKYDYWGQGTQVTVSS	low polyreactivity
QVQLVESGGGLVQAGGSLRLSCAASGSIFYRNAMGWYRQAPGKERELVAAISRSGGSTYYADSVKGRFTISRDNAKNTVYLQMNSLKPEDTAVYYCAKARPLGGTPSNGFDYWGQGTQVTVSS	high polyreactivity
QVQLVESGGGLVQAGGSLRLSCAASGSIFYRNAMGWYRQAPGKERELVAAITRSDGRTYYADSVKGRFTISRDNAKNTVYLQMNSLKPEDTAVYYCNADHPFPQYEGGSWGQGTQVTVSS	low polyreactivity
QVQLVESGGGLVQAGGSLRLSCAASGSIFYRNRMGWYRQAPGKERELVAAIRYSGDNTYYADSVKGRFTISRDNAKNTVYLQMNSLKPEDTAVYYCAADFPDYEYWGQGTQVTVSS	high polyreactivity
QVQLVESGGGLVQAGGSLRLSCAASGSIFYRNTMGWYRQAPGKERELVAAITYSGGSTYYADSVKGRFTISRDNAKNTVYLQMNSLKPEDTAVYYCAVTDFYSYLLRYDSWGQGTQVTVSS	low polyreactivity
QVQLVESGGGLVQAGGSLRLSCAASGSIFYRNTMGWYRQAPGKERELVASINTGTGTYYADSVKGRFTISRDNAKNTVYLQMNSLKPEDTAVYYCNSKGWVWPFPSYYPYDSWGQGTQVTVSS	high polyreactivity
QVQLVESGGGLVQAGGSLRLSCAASGSIFYRNTMGWYRQATGKERELVARISNGGSTNYADSVKGRFTISRDNAKNTVYLQMNSLKPEDTAVYYCNARRGSATHSVTARRGYWGQGTQVTVSS	high polyreactivity
QVQLVESGGGLVQAGGSLRLSCAASGSIFYRYAMGWSRQAPGKERELVAYISSGVSTNYADSVKGRFTISRDNAKKTVYLQMNSLKPEDTAVYYCAVRHSYTRAYWGRDFWGQGTQVTVSS	low polyreactivity
QVQLVESGGGLVQAGGSLRLSCAASGSIFYRYAMGWYREAPGKERELVAAISSSGGSTYYADSVKGRFTISRDNAKNTVYSQMNSLKPEDTAVYYCNTDRYYTYDYWGQGTQVTVSS	low polyreactivity
QVQLVESGGGLVQAGGSLRLSCAASGSIFYRYAMGWYRQAPGKERELVAAITQSTDSTYYADSVKGRFTISRDNAKNTVYLQMNSLKPEDSAVYYCDAYLVYYRPYAYGYWGQGTQVTVSS	low polyreactivity
QVQLVESGGGLVQAGGSLRLSCAASGSIFYRYARGWYRQAPGKERELVAAISYNGGRTYYADSVKGRFTISRDNAKNTVYLQMNSLKPEDTAVYYCNAAGRDDAYDYWGQGTQVTVSS	high polyreactivity
QVQLVESGGGLVQAGGSLRLSCAASGSIFYRYTMGWSRQAPGKERELVAAITYSGGSTYYADSVKGRFTISRDNAKNTVYLQMNSLIPEDTAVYYCNKDYYSGQSGYNYWGQGTQVTVSS	low polyreactivity
QVQLVESGGGLVQAGGSLRLSCAASGSIFYRYTMGWYRQAPVTERELVAVISRRGGSTYYADSVKGRFTISRDNEKNTVYLQMNRLKPEDTAVYYCAVPQYRTSVRQGNTLWDDYWGQGTQVTVSS	high polyreactivity
QVQLVESGGGLVQAGGSLRLSCAASGSIFYRYTMGWYRQARGKERELVAAISSDGGSTYYADSVKGRFTISRDNAKKTVYLQMNSLKPEDTAVYYCAAGQDGHSDWGQGTQVTVSS	low polyreactivity
QVQLVESGGGLVQAGGSLRLSCAASGSIFYSNAMGWSRPAPGKEWELVAGITWTGGSTYYADSVKGRFTISRDNAKNTVYLQMNSLKPEYTEVYYCADRVYYRTVLGGYYYWGQGTQVTVSS	low polyreactivity
QVQLVESGGGLVQAGGSLRLSCAASGSIFYSNAMGWYRQAPGKEREFVAAISAGGGSTYYADSVKGRFTISRDHSKNTVYFQMNSLKPEDTAVYYCAKGPLPRAGVKFDYWGQGTQVTVSS	low polyreactivity
